According to patent publication US20060154859A1:

Columns and labels:
[1] = target: long form of human leptin receptor (human) (UniProt P48357); experiment: cell-based or functional assay
[2] = target: recombinant chicken leptin binding domain (chLBD) (chicken); experiment: affinity for chLBD (method not given; compared with the SPR value of WT human leptin)
[3] = target: long form of human leptin receptor (human) (UniProt P48357); experiment: radioreceptor competition assay against iodinated leptin, homogenate of BAF/3 cells with long form of human leptin receptor, average of two experiments
Target sequence in this assay (P48357 22-1165 limits assumed, form in doubt): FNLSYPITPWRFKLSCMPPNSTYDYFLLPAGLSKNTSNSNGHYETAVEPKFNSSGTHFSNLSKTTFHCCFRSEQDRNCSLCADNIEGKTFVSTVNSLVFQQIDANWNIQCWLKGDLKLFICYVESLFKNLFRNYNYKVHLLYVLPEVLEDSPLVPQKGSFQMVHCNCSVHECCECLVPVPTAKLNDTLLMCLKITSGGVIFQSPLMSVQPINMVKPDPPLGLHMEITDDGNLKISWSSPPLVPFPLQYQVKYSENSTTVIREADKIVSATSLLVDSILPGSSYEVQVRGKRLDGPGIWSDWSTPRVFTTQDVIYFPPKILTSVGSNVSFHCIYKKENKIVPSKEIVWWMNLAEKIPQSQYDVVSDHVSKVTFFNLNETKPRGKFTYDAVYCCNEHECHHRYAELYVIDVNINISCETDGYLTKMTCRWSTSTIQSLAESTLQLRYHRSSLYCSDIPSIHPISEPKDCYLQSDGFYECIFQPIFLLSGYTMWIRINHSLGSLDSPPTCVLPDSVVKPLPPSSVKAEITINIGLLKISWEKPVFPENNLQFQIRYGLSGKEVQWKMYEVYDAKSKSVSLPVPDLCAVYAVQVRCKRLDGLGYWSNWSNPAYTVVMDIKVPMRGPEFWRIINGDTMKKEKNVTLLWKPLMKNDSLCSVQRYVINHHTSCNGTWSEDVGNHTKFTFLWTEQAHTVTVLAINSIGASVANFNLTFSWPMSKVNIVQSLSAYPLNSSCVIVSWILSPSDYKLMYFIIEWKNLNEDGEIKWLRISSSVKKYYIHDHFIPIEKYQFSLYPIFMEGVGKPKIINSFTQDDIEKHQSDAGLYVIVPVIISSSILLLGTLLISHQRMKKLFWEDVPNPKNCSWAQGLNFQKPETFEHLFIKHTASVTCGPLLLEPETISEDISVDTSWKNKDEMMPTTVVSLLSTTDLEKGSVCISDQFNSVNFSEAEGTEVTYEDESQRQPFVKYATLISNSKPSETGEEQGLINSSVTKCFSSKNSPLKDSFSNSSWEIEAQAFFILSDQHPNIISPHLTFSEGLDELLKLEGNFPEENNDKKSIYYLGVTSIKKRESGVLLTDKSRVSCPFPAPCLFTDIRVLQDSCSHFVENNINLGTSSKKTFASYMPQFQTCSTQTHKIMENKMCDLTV

[4] = target: recombinant chicken leptin binding domain (chLBD) (chicken); experiment: SPR (Biacore 3000), leptin amine-coupled to CM5 chip, soluble chLBD as analyte, 25 C, 1:1 Langmuir fit, mean of 2 experiments
[5] = target: long form of human leptin receptor (human) (UniProt P48357); experiment: radioreceptor assay, homogenate from 1.75x10^6 BAF/3 cells with human leptin receptor per tube
Target sequence in this assay (P48357 22-1165 limits assumed, form in doubt): as above

Row | IC50 for inhibition in the Baf/3 bioassay [1] | IC50 for inhibition in the Baf/3 bioassay, fold against L39A/D40A/F41A or L39A/D40A/F41A/I42A [1] | Kd [2] | IC50 [3] | EC50 in Baf/3 bioassay (proliferation of BAF/3 cells transfected with the long form of human leptin receptor, MTT) [1] | Kd [4] | koff [4] | kon [4] | specific binding [5] | Substance
1 | 165 nM | 150 fold | 29.5 nM |  |  |  |  |  |  | human leptin S120A/T121A mutant (from UniProt P41159 22-167) (ligand)
2 | 14.3 nM |  | 26.9 nM |  |  |  |  |  |  | human leptin L39A/D40A/F41A/I42A/S120A/T121A mutant (from UniProt P41159 22-167) (ligand)
3 |  |  |  | 1.47 nM | 0.037 nM | 22.8 nM | 0.0037 s⁻¹ | 162000 M⁻¹ s⁻¹ |  | wild-type (WT) ovine leptin, recombinant (from UniProt Q28603 1-146) (ligand)
4 |  |  |  | 5.33 nM | 0.022 nM | 28.8 nM | 0.0043 s⁻¹ | 149000 M⁻¹ s⁻¹ | 6 to 7% | wild-type (WT) human leptin, recombinant (from UniProt P41159 22-167) (ligand)
